# Earlier results, collected in publication PMC2912330.
# Where two headings read alike, the source gives them in different places.
# Key:
# VEGFR2 (Homo sapiens) [1] = target: VEGFR2 (Homo sapiens) (UniProt P35968)
# VEGFR2 (Homo sapiens) [2] = target: VEGFR2 (Homo sapiens) (UniProt P35968); remark: listed apart in the source
# Chain of UniProt P35968 (P35968 20-1356): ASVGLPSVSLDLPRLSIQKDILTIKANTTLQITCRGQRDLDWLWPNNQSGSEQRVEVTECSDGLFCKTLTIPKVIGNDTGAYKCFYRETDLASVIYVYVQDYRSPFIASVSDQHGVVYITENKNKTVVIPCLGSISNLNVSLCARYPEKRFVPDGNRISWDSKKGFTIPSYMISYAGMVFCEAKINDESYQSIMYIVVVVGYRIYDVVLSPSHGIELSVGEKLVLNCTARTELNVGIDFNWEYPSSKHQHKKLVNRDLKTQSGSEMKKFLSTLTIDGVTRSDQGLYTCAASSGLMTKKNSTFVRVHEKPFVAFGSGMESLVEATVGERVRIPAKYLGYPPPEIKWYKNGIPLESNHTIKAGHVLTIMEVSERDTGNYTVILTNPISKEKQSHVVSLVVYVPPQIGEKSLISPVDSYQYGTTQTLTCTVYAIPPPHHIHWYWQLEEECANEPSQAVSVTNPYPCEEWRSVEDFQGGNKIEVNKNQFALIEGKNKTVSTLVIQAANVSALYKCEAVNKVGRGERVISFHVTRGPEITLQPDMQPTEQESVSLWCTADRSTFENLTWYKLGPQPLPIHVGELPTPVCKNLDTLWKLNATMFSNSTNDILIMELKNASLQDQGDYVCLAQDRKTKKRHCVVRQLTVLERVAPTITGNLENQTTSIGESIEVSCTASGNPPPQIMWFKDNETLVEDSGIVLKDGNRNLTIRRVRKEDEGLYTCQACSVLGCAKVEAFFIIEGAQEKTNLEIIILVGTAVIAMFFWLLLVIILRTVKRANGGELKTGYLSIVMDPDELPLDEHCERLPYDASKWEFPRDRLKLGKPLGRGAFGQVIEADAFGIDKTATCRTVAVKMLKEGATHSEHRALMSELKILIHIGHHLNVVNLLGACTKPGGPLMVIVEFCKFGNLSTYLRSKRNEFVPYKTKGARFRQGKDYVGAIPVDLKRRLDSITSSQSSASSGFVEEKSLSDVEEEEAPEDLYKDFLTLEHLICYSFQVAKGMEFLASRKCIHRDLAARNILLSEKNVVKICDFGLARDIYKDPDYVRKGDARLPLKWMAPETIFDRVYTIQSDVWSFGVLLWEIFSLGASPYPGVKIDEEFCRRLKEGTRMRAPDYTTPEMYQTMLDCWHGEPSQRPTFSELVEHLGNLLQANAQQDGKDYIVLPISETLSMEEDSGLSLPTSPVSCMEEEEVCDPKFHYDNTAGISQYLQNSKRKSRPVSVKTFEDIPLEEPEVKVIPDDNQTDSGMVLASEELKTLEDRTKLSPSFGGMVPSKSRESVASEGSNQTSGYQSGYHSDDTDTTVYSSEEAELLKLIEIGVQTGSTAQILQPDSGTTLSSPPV
Kd (VEGFR2 (Homo sapiens) [1]) [nM],Kd (VEGFR2 (Homo sapiens) [2]) [nM],Substance
0.1,,VEGF114 VEGF114 (from UniProt P15692)
,0.1,VEGF165 VEGF165 (from UniProt P15692)
